{"source": "paper doi:10.1101/2021.11.05.467329", "assay_in_all_cases": "SEC", "key": {"[1]": {"biological_target": "Plasmodium falciparum glyceraldehyde 3-phosphate dehydrogenase V238A variant (recombinant) (Plasmodium falciparum) (UniProt Q8IKK7)"}, "[2]": {"biological_target": "Plasmodium falciparum glyceraldehyde 3-phosphate dehydrogenase I209T variant (recombinant) (Plasmodium falciparum) (UniProt Q8IKK7)"}, "[3]": {"biological_target": "Plasmodium falciparum glyceraldehyde 3-phosphate dehydrogenase, wild type (recombinant) (Plasmodium falciparum) (UniProt Q8IKK7)"}}, "note": "Values joined by “and” are separate entries in the source; they are usually repeats but may differ in a detail not shown here. Equal entries are not always repeated.", "data": [{"substance": "Plasmodium falciparum glyceraldehyde 3-phosphate dehydrogenase V238A variant (recombinant) (from UniProt Q8IKK7 4-335) (enzyme)", "values": [{"measurement": "stoichiometry N", "setting": "[1]", "value": "4 and 2"}]}, {"substance": "Plasmodium falciparum glyceraldehyde 3-phosphate dehydrogenase I209T variant (recombinant) (from UniProt Q8IKK7 4-335) (enzyme)", "values": [{"measurement": "stoichiometry N", "setting": "[2]", "value": "4 and 2"}]}, {"substance": "Plasmodium falciparum glyceraldehyde 3-phosphate dehydrogenase, wild type (recombinant) (from UniProt Q8IKK7 4-335) (enzyme)", "values": [{"measurement": "stoichiometry N", "setting": "[3]", "value": 4}]}]}
